Where no end group is shown, it is not given here.
Biological target: mitogen-activated protein kinase-activated protein kinase 2 (MK2), P49137
Assay: cell-based or functional assay

Sequence of mitogen-activated protein kinase-activated protein kinase 2 (MK2), P49137 (P49137 46-400): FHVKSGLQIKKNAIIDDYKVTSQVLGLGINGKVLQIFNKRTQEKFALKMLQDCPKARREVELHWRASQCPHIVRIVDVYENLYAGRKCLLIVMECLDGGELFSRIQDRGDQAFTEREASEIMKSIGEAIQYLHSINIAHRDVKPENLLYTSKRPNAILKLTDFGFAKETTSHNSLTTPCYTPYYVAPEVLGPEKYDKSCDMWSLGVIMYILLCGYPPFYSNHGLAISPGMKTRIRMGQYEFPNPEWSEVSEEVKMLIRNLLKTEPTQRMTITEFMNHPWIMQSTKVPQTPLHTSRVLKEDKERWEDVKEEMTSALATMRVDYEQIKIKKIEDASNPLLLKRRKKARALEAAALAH

Binder: YARAAARQARAKALARQLGVAA (not fully specified (C-terminus)) [MMI-0100 (…; SEQ ID NO: 1)]
- Percent Activity (radiometric kinase assay, peptide at 100 µM): < 5 % activity

— US20130115256A1, “METHODS FOR TREATING OR PREVENTING VASCULAR GRAFT FAILURE” (priority 2010, published 2013)
